Laboratory results: article PMC11472163, “Crystal structure and nucleic acid binding mode of CPV NSP9: implications for viroplasm in Reovirales”

Legend:
[1] = molecular target: BmCPV1 NSP9^ΔC (1–286 amino acid residues, lacking residues 287–320), expressed in E. coli (Bombyx mori cypovirus 1 (BmCPV1)); assay: AUC
[2] = molecular target: BmCPV1 NSP9^ΔC (1–286 amino acid residues, lacking residues 287–320), expressed in E. coli (Bombyx mori cypovirus 1 (BmCPV1)); assay: SEC; […]; 10 mM HEPES pH 7.5, 100 mM NaCl; […]
NSP9ΔC [3] = molecular target: T1, NSP9ΔC (Bombyx mori cypovirus 1 (BmCPV1), UniProt O72505 1-286); assay: EMSA; two sequential bands; 2:1 dimer:NA; […]; SEC: 10 mM HEPES pH 7.5, 100 mM NaCl; conditions: protein: recombinant; chain copies: 2; label: 5' 6-FAM
NSP9ΔC [4] = molecular target: T1, NSP9ΔC; assay: EMSA; no significant difference from DNA; […]; SEC: 10 mM HEPES pH 7.5, 100 mM NaCl; conditions: protein: recombinant; chain copies: 2; label: 5' 6-FAM
NSP9ΔC [5] = molecular target: T1, NSP9ΔC; assay: EMSA; 1:1 NSP9ΔC dimer:ssDNA; […]; SEC: 10 mM HEPES pH 7.5, 100 mM NaCl; conditions: protein: recombinant; chain copies: 2; label: 5' 6-FAM (EMSA)

“BmCPV1 NSP9^ΔC (1–286 amino acid residues, lacking residues 287–320), expressed in E. coli (domain or fragment)” gave a stoichiometry N [1] of 2 and a stoichiometry N [2] of 2.

AGUAAAUCCCAGGCGCUCGGGUCGUUAGCC (ssRNA) [30 nt ssRNA]: binds (NSP9ΔC [3]).

AGUAAGCUGUUAGCC (ssRNA) [15 nt ssRNA]: binds (NSP9ΔC [4]).

AGTAAGCTGTTAGCC (ssDNA) [15 nt ssDNA]: binds (NSP9ΔC [5]).

AGTAAATCCCAGGCGCTCGGGTCGTTAGCC (ssDNA) [30 nt ssDNA]: binds (NSP9ΔC [3]).
